Values of other authors, collected in publication PMC12198371 (Nature Communications, 2025).

Target: α-chymotrypsin
Conditions: natural inhibitor, Fig. 9d

B1: BBI G.m.: Bowman–Birk inhibitor (BBI) from soybean Glycine max (71 amino acids) (protein, UniProt P01055 40-110, looked up)
Bowman-Birk type proteinase …: DDESSKPCCDQCACTKSNPPQCRCSDMRLNSCHSACKSCICALSYPAQCFCVDITDFCYEPCKPSEDDKEN
In the case of B1, the Ki is given as 6 nM.
